The source of these data is patent US20230051715A1 (MABWELL THERAPEUTICS, published 2023).

One may read the Kd as the constant that tells how readily two partners part at equilibrium. For orientation: koff means the rate constant with which the complex falls apart. A word on the kon: it is the second-order rate constant of association. What is called EC50 is the concentration at which the effect is half-maximal. Low readings indicate an effect from little substance, high ones a need for much substance.

Residue numbers refer to the chain shown, from its start. Names and notes keep the numbering of the source.

Test [1] deals with T1, human C1s proenzyme (CompTech A103) (human, UniProt P09871 16-688).
T1 construct: also called proenzyme human C1s (native C1s)
T1 sequence (looked up): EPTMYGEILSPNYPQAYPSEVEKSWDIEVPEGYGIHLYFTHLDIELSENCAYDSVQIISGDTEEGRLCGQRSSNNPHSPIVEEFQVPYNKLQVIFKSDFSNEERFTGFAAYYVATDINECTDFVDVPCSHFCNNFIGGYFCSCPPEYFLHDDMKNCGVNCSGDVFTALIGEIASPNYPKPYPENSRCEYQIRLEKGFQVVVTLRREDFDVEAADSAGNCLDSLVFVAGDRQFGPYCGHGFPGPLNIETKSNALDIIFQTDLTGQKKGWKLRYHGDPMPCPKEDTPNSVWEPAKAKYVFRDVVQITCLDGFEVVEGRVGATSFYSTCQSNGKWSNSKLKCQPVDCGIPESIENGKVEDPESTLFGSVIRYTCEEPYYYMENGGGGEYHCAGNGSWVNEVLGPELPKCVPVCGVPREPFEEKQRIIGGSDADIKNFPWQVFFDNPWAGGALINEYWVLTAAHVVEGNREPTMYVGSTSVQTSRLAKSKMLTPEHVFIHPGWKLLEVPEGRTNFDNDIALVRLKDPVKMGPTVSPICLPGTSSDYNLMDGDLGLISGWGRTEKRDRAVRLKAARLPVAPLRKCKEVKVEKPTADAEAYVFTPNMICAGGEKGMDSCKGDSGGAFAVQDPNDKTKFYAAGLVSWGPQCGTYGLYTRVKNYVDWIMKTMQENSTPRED
In words: BLI (Octet RED96e), antibody on AHC biosensor; HuC1s Form: Proenzyme; R^2 0.9994. As to the method: (§1) Bio-Layer Interferometry technology was used for anti-C1s antibody affinity measurement and binding kinetics determinations with OCTET® RED96e system (Sartorius AG). Pre-hydrated Anti-Human IgG Fc Capture (AHC) biosensors were first equilibrated in 1×KB (Kinetic Buffer, 1×PBS pH 7.4+0.02% Tween-20+0.1% BSA) for 120 sec for the first baseline, followed by loading with […] anti-C1s antibody (2-7, FIG. 3A; 2-8, FIG. 3B; hz2-7(H1L2), FIG. 3C; hz2-8(H1L2 G80A/T82A, FIG. 3D) onto AHC biosensors for 240 sec. Then, the second baseline signal was established for 120 sec before association with various concentrations of active human C1s (CompTech A104) for 240-360 sec. At last, analyte was dissociated in 1×KB for 360 sec. Anti-C1s antibodies 2-7 and 2-8 were also analyzed against human C1s proenzyme (CompTech A103) (data not shown). Data analysis was carried out using OCTET® Data Analysis HT Software (Sartorius AG). KD, kₒₙ, koff and R² values were calculated for each antibody and target combination, as summarized in FIG. 3E showing high affinity binding with KD values in the low nanomolar to picomolar range.
A general note: BLI is a label-free optical method that tracks binding on a fibre tip over time.

Test [2] has as its target T2, active human C1s (CompTech A104 C1s Enzyme) (human, UniProt P09871 16-688).
T2 construct: also called human active C1s; active C1s protein
T2 sequence (looked up): T1 sequence (looked up)
Nature of the test: BLI (Octet RED96e), antibody on AHC biosensor; HuC1s Form: Active; R^2 0.9994. How it is done:
as §1

Test [3] addresses T3, full-length human C1s (produced in house) (human, UniProt P09871 16-688).
T3 construct: Called full-length; Partly auto-cleaved at R422-I423 on blots; also called HuC1s; Hu C1s
T3 sequence: T1 sequence (looked up)
In words: BLI (Octet RED96e), antibody on AHC biosensor; C1s Species: Human; R^2 0.9999. From the text:
(§2) At last, analyte was dissociated in 1×KB for 360 sec. Data analysis was done using OCTET® Data Analysis HT Software (Sartorius AG).

Test [4] addresses T4, human C1s deletion mutant 3 (NHCΔ33) (human, UniProt P09871 16-404).
T4 construct: C-terminal 6xHis tag; also called human C1s (NHCΔ33); C1s (NHCΔ33)
T4 sequence: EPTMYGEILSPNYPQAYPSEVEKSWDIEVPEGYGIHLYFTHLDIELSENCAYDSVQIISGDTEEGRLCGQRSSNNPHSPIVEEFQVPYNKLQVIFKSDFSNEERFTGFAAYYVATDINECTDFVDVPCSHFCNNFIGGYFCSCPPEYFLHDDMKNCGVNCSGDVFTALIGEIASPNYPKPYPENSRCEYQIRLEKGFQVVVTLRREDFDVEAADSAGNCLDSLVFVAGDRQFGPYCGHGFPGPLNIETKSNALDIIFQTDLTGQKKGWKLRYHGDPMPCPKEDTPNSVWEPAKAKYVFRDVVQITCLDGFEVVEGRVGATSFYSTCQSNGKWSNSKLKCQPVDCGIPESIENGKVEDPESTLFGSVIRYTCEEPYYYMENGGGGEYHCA
Nature of the test: ELISA, C1s fragment coated on plate; hz2-8(H1L2 G80A), first of the two values. How it is done: ELISA was carried out by first coating 96-well plates with 200 ng/well of full-length or truncated C1s proteins overnight. The next morning, plates were blocked with SuperBlock T20 blocking buffer (Thermo Scientific 37536) for 1 h with gentle shaking. Then, various concentrations of anti-C1s antibodies diluted in SuperBlock T20 blocking buffer were added to the plates and incubated for 1 h with gentle shaking. Mouse IgG (Sigma-Aldrich 15381) and human IgG1 (BioXCell BP0297) were used as negative controls. The plates were washed before incubating with HRP conjugated secondary antibodies diluted in SuperBlock T20 blocking buffer (goat anti-mouse IgG (H+L) cross-adsorbed secondary antibody HRP (Invitrogen G-21040) or goat anti-human IgG antibody, HRP conjugate (Millipore AP309P)) for 1 h with gentle shaking. At last, the plates were washed and color developed with ELISA liquid HRP substrate (Sigma-Aldrich), followed by stopping the reaction with addition of 1M H₂SO₄ in the same volume as the ELISA liquid substrate. Bound antibody was measured by absorbance at OD₄₅₀ₙₘ.
Binding of various anti-C1s antibodies to human C1s (NHCΔ33) (SEQ ID NO: 111) was carried out by ELISA as described in Example 4, and results are shown in FIG. 6A.
On the technique in general: An ELISA detects its analyte on a solid surface through an enzyme-linked reagent.

In test [5] the target is T3, full-length human C1s (produced in …). In words: BLI (Octet RED96e), antibody on AHC biosensor; C1s Species: Human; R^2 0.9997.
Text: as §2

B1: Anti-C1s antibody 2-7 (antibody, human IgG1, kappa, V domains shown)
VH: EVKLEESGGGLVPPGGSMKLSCVASGFTFSNYFMNWVRQSPEKGLEWVAEIRLKFTNYATHYAESVEGRFTISRDDSKSSVYLQMNNLRAEDTGIYYCTRDYGSRNGYFDYWGQGTTLTVSS
VL: DIVMTQAAPSVPVTPGESVSISCRSSKSLLHSNGNTFLYWFLQRPGQSPQLLIYRMSNLASGVPDRFSGSGSGTAFTLRVSRVEAEDVGIYYCMQHLEYPYTFGGGTKLEIKT
notes: the HC/LC entries may hold it too; also called clone 2-7
For B1, in test [1], the dissociation constant Kd was found to be 0.14 nM, the off-rate constant (koff) amounted to 4.8e-05 s⁻¹ and the on-rate constant (kon) was 350000 M⁻¹ s⁻¹. In test [2], the Kd came to 0.14 nM, the koff worked out at 4.8e-05 s⁻¹ and the kon stood at 350000 M⁻¹ s⁻¹.

B2: Anti-C1s antibody hz2-7(H1L2) (antibody, V domains shown)
VH: EVQLLESGGGLVQPGGSLRLSCAASGFTFSNYFMNWVRQAPGKGLEWVSEIRLKFTNYATHYADSVKGRFTISRDDSKSTLYLQMNSLRAEDTAVYYCTRDYGSRNGYFDYWGQGTLVTVSS
VL: DIVMTQTPLSLPVTPGEPASISCRSSKSLLHSNGNTFLYWFLQKPGQSPQLLIYRMSNLASGVPDRFSGSGSGTDFTLKISRVEAEDVGVYYCMQHLEYPYTFGGGTKLEIKR
notes: Humanized, human IgG1 / kappa; also called hz2-7(1L2)
Turning to B2, in test [3], the Kd stood at 0.12 nM, the koff was 4.6e-05 s⁻¹ and the kon turned out to be 390000 M⁻¹ s⁻¹.

B3: Anti-C1s antibody hz2-8 (H1L2 G80A) (antibody, V domains shown)
VH: QVQLVQSGAEVKKPGASVKVSCKASGFNIKEYYMHWVRQAPEQGLEWMGWIDPENADTIYAQKFQGRVTITADTSTNTAYMELSSLRSEDTAVYYCARSRLFFAYWGQGTLVTVSS
VL: DIQMTQSPKSLSASVGDRVTITCRASQDVRTALDWYQQKPGQSPKLLIYSASYRYSGVPSRFSGSGSGTDFTLTISSLQPEDFATYYCQQQYTTPYTFGQGTKLEIKR
notes: Humanized variant with G80A in HC CDR2 (already in the entry), human IgG1 / kappa
B3 gave a half-maximal effective concentration (EC50) in test [4] of 8 ng/mL.

B4: Anti-C1s antibody hz2-8 (H1L2 G80A/T82A) (antibody, V domains shown)
VH: B3 VH with T58A
VL: B3 VL
notes: Humanized variant with G80A and T82A in HC CDR2 (already in the entry), human IgG1 / kappa
For B4, in test [5], the dissociation constant Kd turned out to be 0.7 nM, the dissociation rate constant (koff) is 0.0003 s⁻¹ and the kon stood at 430000 M⁻¹ s⁻¹.
